Results on 21 molecules are retold here after patent publication US20220041658A1 (PROTAGONIST THERAPEUTICS, published 2022).

The target in test [1] is T1, interleukin-23 receptor (IL-23R) (human, UniProt Q5VWK5 24-629).
T1 sequence (looked up): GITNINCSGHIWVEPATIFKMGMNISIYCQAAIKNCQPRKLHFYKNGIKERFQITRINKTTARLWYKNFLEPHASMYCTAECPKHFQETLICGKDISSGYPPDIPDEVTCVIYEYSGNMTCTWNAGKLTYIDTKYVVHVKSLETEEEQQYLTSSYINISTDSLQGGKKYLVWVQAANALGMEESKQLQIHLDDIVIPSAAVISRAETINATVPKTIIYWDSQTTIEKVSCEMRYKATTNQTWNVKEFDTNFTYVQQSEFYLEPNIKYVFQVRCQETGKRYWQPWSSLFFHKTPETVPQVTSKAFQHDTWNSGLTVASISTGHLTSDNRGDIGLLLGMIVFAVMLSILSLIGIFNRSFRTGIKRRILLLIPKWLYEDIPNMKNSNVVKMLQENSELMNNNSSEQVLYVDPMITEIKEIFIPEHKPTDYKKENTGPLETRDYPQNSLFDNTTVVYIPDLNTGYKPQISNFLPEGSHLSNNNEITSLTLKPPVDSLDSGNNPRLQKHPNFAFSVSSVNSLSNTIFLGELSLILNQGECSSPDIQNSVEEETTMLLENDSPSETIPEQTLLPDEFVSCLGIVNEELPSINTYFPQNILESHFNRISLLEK
Briefly: cell-based or functional assay.

The target in test [2] is T1, interleukin-23 receptor (IL-23R). Kind of test: cell-based or functional assay. This is another data set of the same source.

Positions of bridges follow the written chain, without caps; N, C: chain ends. Non-standard residues stand in square brackets, D forms with d. Trp(7-OMe) = COc1cccc2c(C[C@H](N)C(=O)O)c[nH]c12; Trp(7-Me) = Cc1cccc2c(C[C@H](N)C(=O)O)c[nH]c12; Trp(2-Me) = Cc1[nH]c2ccccc2c1C[C@H](N)C(=O)O; 2Nal = N[C@@H](Cc1ccc2ccccc2c1)C(=O)O; AEF = NCCOc1ccc(C[C@H](N)C(=O)O)cc1; Cit = NC(=O)NCCC[C@H](N)C(=O)O; Pen = CC(C)(S)[C@H](N)C(=O)O; hLeu = CC(C)CC[C@H](N)C(=O)O; αMeK = C[C@](N)(CCCCN)C(=O)O; Abu = CC[C@H](N)C(=O)O; Aib = CC(C)(N)C(=O)O; βAla = NCCC(=O)O

B1: Peptide of SEQ ID NO: 334 (peptide)
peptide: Ac-[Pen]ST[Trp(7-Me)]K(Ac)[Pen][AEF][2Nal][αMeK]K(Ac)N[dL]-NH2
modifications: disulfide 1-6 (inferred)
Turning to B1, the “pStat3 HTRF IC50” value in test [1] is 0.55 nM. The “NK Cell Assay IC50” value in test [2] was found to be 4.52 nM.

B2: Peptide of SEQ ID NO: 340 (peptide)
peptide: Ac-[Pen]NT[Trp(7-Me)][Cit][Pen][AEF][2Nal][αMeK]K(Ac)N[Aib][βAla]-NH2
modifications: disulfide 1-6 (inferred)
As for B2, the “pStat3 HTRF IC50” value in test [1] turned out to be 0.322 nM. In addition, in test [2], the “NK Cell Assay IC50” value is 2.1 nM.

B3: Peptide of SEQ ID NO: 352 (peptide)
peptide: XNTXKXXXXKSK
modifications: Ac-[Pen]-N-T-[W(7-Me)]-[Lys(Ac)]-[Pen]-Phe[4-(2-aminoethoxy)]-[2-Nal]-[a-MeLys]-[Lys(Ac)]-S-[(D)Lys]-NH2; Pen-Pen disulfide
Turning to B3, the “pStat3 HTRF IC50” value in test [1] came to 0.927 nM. Also, the “NK Cell Assay IC50” value in test [2] turned out to be 3.5 nM.

B4: Peptide of SEQ ID NO: 363 (peptide)
peptide: XNTXKXXXXXNL
modifications: Ac-[Pen]-N-T-[W(7-Me)]-[Lys(Ac)]-[Pen]-Phe[4-(2-aminoethoxy)]-[2-Nal]-[a-MeLys]-[Lys(PEG11-OMe)]-N-[(D)Leu]-NH2; Pen-Pen disulfide
For the molecule B4, the “pStat3 HTRF IC50” value in test [1] was 0.446 nM. In addition, the “NK Cell Assay IC50” value in test [2] amounted to 4.36 nM.

B5: Peptide of SEQ ID NO: 297 (peptide)
peptide: XNTXQXXXXKNK
modifications: Ac-[Pen]-N-T-[W(7-OMe)]-Q-[Pen]-Phe[4-(2-aminoethoxy)]-[2-Nal]-[a-MeLys]-[Lys(Ac)]-N-[(D)Lys]-NH2; Pen-Pen disulfide
In the case of B5, the “pStat3 HTRF IC50” value in test [1] was found to be 1.04 nM.

B6: Peptide of SEQ ID NO: 359 (peptide)
peptide: XNTXKXXXXXNL
modifications: not fully specified; Ac-[Pen]-N-T-[W(7-Me)]-[Lys(Ac)]-[Pen]-Phe[4-(2-aminoethoxy)]-[2-Nal]-[a-MeLys]-[Lys(benzyl)]-N-[(D)Leu]-NH2; Pen-Pen disulfide
For B6, in test [1], the “pStat3 HTRF IC50” value stood at 0.725 nM. In addition, in test [2], the “NK Cell Assay IC50” value stood at 4.97 nM.

B7: Peptide of SEQ ID NO: 358 (peptide)
peptide: XNTXKXXXXXNL
modifications: Ac-[Pen]-N-T-[W(7-Me)]-[Lys(Ac)]-[Pen]-Phe[4-(2-aminoethoxy)]-[2-Nal]-[a-MeLys]-[Lys(octanoic)]-N-[(D)Leu]-NH2; Pen-Pen disulfide
With B7, the “pStat3 HTRF IC50” value in test [1] is 3.03 nM. The “NK Cell Assay IC50” value in test [2] was found to be 6.3 nM.

B8: Peptide of SEQ ID NO: 296 (peptide)
peptide: XNTXQXXXXKNK
modifications: Ac-[Pen]-N-T-[W(5-CN)]-Q-[Pen]-Phe[4-(2-aminoethoxy)]-[2-Nal]-[a-MeLys]-[Lys(Ac)]-N-[(D)Lys]-NH2; Pen-Pen disulfide
For the molecule B8, the “pStat3 HTRF IC50” value in test [1] was determined as 6.29 nM.

B9: Peptide of SEQ ID NO: 324 (peptide)
peptide: Ac-[dR][Abu]QT[Trp(7-Me)]K(Ac)C[AEF][2Nal][αMeK]K(Ac)N[dK]-NH2
modifications: thioether 2-7 (inferred)
B9: in test [1], the “pStat3 HTRF IC50” value was found to be 27 nM. For the same molecule, the “NK Cell Assay IC50” value in test [2] was found to be 9.35 nM.

B10: Peptide of SEQ ID NO: 291 (peptide)
peptide: Ac-[Pen]NT[Trp(7-Me)]K(Ac)[Pen][His_3Bom][2Nal][αMeK]K(Ac)N[dL]-NH2
modifications: disulfide 1-6 (inferred)
Consider B10, for which, in test [1], the “pStat3 HTRF IC50” value was more than 1 µM.

B11: Peptide of SEQ ID NO: 355 (peptide)
peptide: XNTXKXXXXXNL
modifications: Ac-[Pen]-N-T-[W(7-Me)]-[Lys(Ac)]-[Pen]-Phe[4-(2-aminoethoxy)]-[2-Nal]-[a-MeLys]-[Lys(Ala)]-N-[(D)Leu]-NH2; Pen-Pen disulfide
Regarding B11, the “pStat3 HTRF IC50” value in test [1] amounted to 0.456 nM. Besides, the “NK Cell Assay IC50” value in test [2] is 5.34 nM.

B12: Peptide of SEQ ID NO: 299 (peptide)
peptide: XNTXKXXXXKNK
modifications: Ac-[Pen]-N-T-[W(7-OMe)]-[Lys(Ac)]-[Pen]-Phe[4-(2-aminoethoxy)]-[2-Nal]-[a-MeLys]-[Lys(Ac)]-N-[(D)Lys]-NH2; Pen-Pen disulfide
Take B12: the “pStat3 HTRF IC50” value in test [1] was 2.86 nM.

B13: Peptide of SEQ ID NO: 206 (peptide)
peptide: XNTXQXXXXKXX
modifications: Ac-[Pen]-NT-[W(7-Me)]-Q-[Pen]-Phe[4-(2-aminoethoxy)]-[2-Nal]-[a-MeLeu]-[Lys(Ac)]-[Cit]-[bA]-NH2; Pen-Pen disulfide
For the molecule B13, in test [1], the “pStat3 HTRF IC50” value was 12 nM. Also, the “NK Cell Assay IC50” value in test [2] was found to be 21.4 nM.

B14: Peptide of SEQ ID NO: 353 (peptide)
peptide: Ac-[Pen]NT[Trp(7-Me)]K(Ac)[Pen][AEF][Trp(2-Me)][αMeK]K(Ac)N[dK]-NH2
modifications: disulfide 1-6 (inferred)
Turning to B14, in test [1], the “pStat3 HTRF IC50” value is 0.715 nM. The “NK Cell Assay IC50” value in test [2] is 7.1 nM.

B15: Peptide of SEQ ID NO: 300 (peptide)
peptide: Ac-[Pen]NT[Trp(7-OMe)][Cit][Pen][AEF][2Nal][αMeK]K(Ac)N[dK]-NH2
modifications: disulfide 1-6 (inferred)
For B15, in test [1], the “pStat3 HTRF IC50” value is more than 1 µM.

B16: Peptide of SEQ ID NO: 288 (peptide)
peptide: XNTXKXXXXKNL
modifications: Ac-[Pen]-N-T-[W(7-OMe)]-[Lys(Ac)]-[Pen]-Phe[4-(2-aminoethoxy)]-[2-Nal]-[a-MeLys]-[Lys(Ac)]-N-[(D)Leu]-NH2; Pen-Pen disulfide
Regarding B16, in test [1], the “pStat3 HTRF IC50” value turned out to be 1.48 nM.

B17: Peptide of SEQ ID NO: 203 (peptide)
peptide: RXQTXQCXXXENX
modifications: Ac-[(D)Arg]-Abu-Q-T-[W(7-Me)]-Q-C-Phe[4-(2-aminoethoxy)]-[2-Nal]-[THP]-E-N-[bA]-NH2; Abu-Cys thioether
As to B17, in test [1], the “pStat3 HTRF IC50” value came to 1.84 nM. Also, the “NK Cell Assay IC50” value in test [2] was 2.3 nM.

B18: Peptide of SEQ ID NO: 215 (peptide)
peptide: XNTXQXXXXKHX
modifications: Ac-[Pen]-NT-[W(7-Me)]-Q-[Pen]-Phe[4-(2-aminoethoxy)]-[2-Nal]-[a-MeLeu]-[Lys(Ac)]-[(D)His]-[bA]-NH2; Pen-Pen disulfide
As to B18, the “pStat3 HTRF IC50” value in test [1] came to 4.94 nM. Moreover, the “NK Cell Assay IC50” value in test [2] was 20 nM.

B19: Peptide of SEQ ID NO: 337 (peptide)
peptide: Ac-[Pen][hLeu]T[Trp(7-Me)]K(Ac)[Pen][AEF][2Nal][αMeK]K(Ac)N[dL]-NH2
modifications: disulfide 1-6 (inferred)
For the molecule B19, the “pStat3 HTRF IC50” value in test [1] was found to be 0.779 nM. Further, the “NK Cell Assay IC50” value in test [2] turned out to be 11.1 nM.

B20: Peptide of SEQ ID NO: 292 (peptide)
peptide: Ac-[Pen]NT[Trp(7-Me)]K(Ac)[Pen][His_Bzl][2Nal][αMeK]K(Ac)N[dL]-NH2
modifications: disulfide 1-6 (inferred)
Regarding B20, the “pStat3 HTRF IC50” value in test [1] was determined as 128 nM.

B21: Peptide of SEQ ID NO: 205 (peptide)
peptide: XNTXQXXXXKGX
modifications: Ac-[Pen]-NT-[W(7-Me)]-Q-[Pen]-Phe[4-(2-aminoethoxy)]-[2-Nal]-[a-MeLeu]-[Lys(Ac)]-G-[bA]-NH2; Pen-Pen disulfide
Consider B21, for which the “pStat3 HTRF IC50” value in test [1] was 4.46 nM. Moreover, the “NK Cell Assay IC50” value in test [2] worked out at 16.6 nM.
